T1: GST-Prp40FF1 (amino acids 129-201) (Saccharomyces cerevisiae, UniProt P33203 129-201)
T1 construct: Prp40, S. cerevisiae, residues 129-201 (Prp40FF1); also called GST-FF1; source: E. coli BL21, purified (glutathione Sepharose 4B)
T1 sequence (looked up): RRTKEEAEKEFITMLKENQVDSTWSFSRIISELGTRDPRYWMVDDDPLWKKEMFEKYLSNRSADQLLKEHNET

T2: GST-Prp40FF1-2 (amino acids 129-264) (Saccharomyces cerevisiae, UniProt P33203 129-264)
T2 construct: Prp40, S. cerevisiae, residues 129-264 (Prp40FF1-2); also called GST-FF1-2; source: E. coli BL21, purified (glutathione Sepharose 4B)
T2 sequence (looked up): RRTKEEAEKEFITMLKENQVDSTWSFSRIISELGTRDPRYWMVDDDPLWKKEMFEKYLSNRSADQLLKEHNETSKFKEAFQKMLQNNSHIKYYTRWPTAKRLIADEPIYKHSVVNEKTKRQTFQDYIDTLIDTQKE


How the values were obtained:
[1] = biological target: T1, GST-Prp40FF1 (amino acids 129-201); assay: peptide or protein array; SPOT 15-mer peptides (3 aa shifts; alanine scan and substitution analysis of A24) on a β-alanine membrane, probed overnight at 4°C with 10 μg/ml purified GST fusion protein, detected with anti-GST antibody; conditions: both partners purified
[2] = biological target: T2, GST-Prp40FF1-2 (amino acids 129-264); assay: as above; conditions: both partners purified

Binder | binding result [1] | binding result [2]
DRRLADHFLGKIHLG (also called A24 peptide) [Luc7 peptide A24, D214RRLADHFLGKIHLG228] | binds | binds
HLANDVHYDHHRSFK (Snu71, S. cerevisiae, residues 418-432) [Snu71 peptide B1, H418LANDVHYDHHRSFK432] |  | binds

— paper PMC2613882, “The FF domains of yeast U1 snRNP protein Prp40 mediate interactions with Luc7 and Snu71” (BMC Biochemistry, 2008)
